{"source": "paper PMC8634867", "molecular_target": "C10A mutant of Arabidopsis thaliana cytochrome c1, soluble domain (Arabidopsis thaliana)", "assay": "BLI; His6-tagged Cc1 (50 ug/mL) immobilised on Ni-NTA biosensors (Octet RED 96e); Cc at 0.3215-10 uM; 10 mM sodium phosphate pH 7.4, 0.01 uM rabbit serum albumin, 0.01% Triton X-100; both proteins reduced; wavelength shift at equilibrium fitted to a non-linear equation with a linear non-specific term; in duplicate"}
{"substance": "human cytochrome c K8Q acetyl-mimetic mutant (from UniProt P99999 1-105) (natural protein)", "values": [{"measurement": "Kd", "value": 99, "unit": "nM"}]}
{"substance": "human cytochrome c, wild-type (from UniProt P99999 1-105) (natural protein)", "values": [{"measurement": "Kd", "value": 137, "unit": "nM"}]}
{"substance": "human cytochrome c K53Q acetyl-mimetic mutant (from UniProt P99999 1-105) (natural protein)", "values": [{"measurement": "Kd", "value": 116, "unit": "nM"}]}
